Reference: the supplement of paper PMC10567573

B1: SCNN1D (parent)
chain: FYRLYQDLETHRLPCTSRCPRPCR
B2: ZNF207 (parent)
chain: YQGGPPRPPMGMRPPVMSQGGRY

Variants of: B1
Test: protein stability index of a GFP-peptide fusion (GPS, HEK-293T) (PSI 1-6); higher = more stable
Conditions: c terminus: a fixed tail appended
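Note: lentivirally expressed fusions sorted by FACS into six bins by GFP to DsRed ratio, PSI derived from sequencing read proportions per bin multiplied by bin number.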

Variant	protein stability index
WYRLYQDLETHRLPCTSRCPRPCR [F1W]	2.91
VYRLYQDLETHRLPCTSRCPRPCR [F1V]	2.13
IYRLYQDLETHRLPCTSRCPRPCR [F1I]	2.12
NYRLYQDLETHRLPCTSRCPRPCR [F1N]	3.47
KYRLYQDLETHRLPCTSRCPRPCR [F1K]	3.37
QYRLYQDLETHRLPCTSRCPRPCR [F1Q]	2.71
TYRLYQDLETHRLPCTSRCPRPCR [F1T]	3.46
DYRLYQDLETHRLPCTSRCPRPCR [F1D]	3.8
YYRLYQDLETHRLPCTSRCPRPCR [F1Y]	2.4
GYRLYQDLETHRLPCTSRCPRPCR [F1G]	4.3
MYRLYQDLETHRLPCTSRCPRPCR [F1M]	2.02
AYRLYQDLETHRLPCTSRCPRPCR [F1A]	2.87
SYRLYQDLETHRLPCTSRCPRPCR [F1S]	3.2
EYRLYQDLETHRLPCTSRCPRPCR [F1E]	3.71
RYRLYQDLETHRLPCTSRCPRPCR [F1R]	2.92
LYRLYQDLETHRLPCTSRCPRPCR [F1L]	1.54
HYRLYQDLETHRLPCTSRCPRPCR [F1H]	3.06
CYRLYQDLETHRLPCTSRCPRPCR [F1C]	2.22

Variant	protein stability index
PYRLYQDLETHRLPCTSRCPRPCR [F1P]	3.59
FRRLYQDLETHRLPCTSRCPRPCR [Y2R]	2.58
FCRLYQDLETHRLPCTSRCPRPCR [Y2C]	1.55
FERLYQDLETHRLPCTSRCPRPCR [Y2E]	4.26
FHRLYQDLETHRLPCTSRCPRPCR [Y2H]	1.59
FFRLYQDLETHRLPCTSRCPRPCR [Y2F]	2.22
FLRLYQDLETHRLPCTSRCPRPCR [Y2L]	1.55
FNRLYQDLETHRLPCTSRCPRPCR [Y2N]	3.63
FGRLYQDLETHRLPCTSRCPRPCR [Y2G]	2.74
FARLYQDLETHRLPCTSRCPRPCR [Y2A]	2.69
FQRLYQDLETHRLPCTSRCPRPCR [Y2Q]	1.98
FDRLYQDLETHRLPCTSRCPRPCR [Y2D]	3.56
FPRLYQDLETHRLPCTSRCPRPCR [Y2P]	2.85
FMRLYQDLETHRLPCTSRCPRPCR [Y2M]	2.4
FIRLYQDLETHRLPCTSRCPRPCR [Y2I]	2.27
FSRLYQDLETHRLPCTSRCPRPCR [Y2S]	2.49
FKRLYQDLETHRLPCTSRCPRPCR [Y2K]	2.41

Variants of: B2
Test: as above
Conditions: c terminus: native

Variant	protein stability index
YQGGPPRPPMGMRPPVMSQGPRY [G21P]	3.63
YQGGPPRPPMGMRPPVMSQGFRY [G21F]	1.72
YQGGPPRPPMGMRPPVMSQGTRY [G21T]	2.74
YQGGPPRPPMGMRPPVMSQGSRY [G21S]	1.82
YQGGPPRPPMGMRPPVMSQGCRY [G21C]	2.24
YQGGPPRPPMGMRPPVMSQGHRY [G21H]	1.77
YQGGPPRPPMGMRPPVMSQGQRY [G21Q]	2.1
YQGGPPRPPMGMRPPVMSQGRRY [G21R]	2.27
YQGGPPRPPMGMRPPVMSQGVRY [G21V]	2.3
YQGGPPRPPMGMRKPVMSQGGRY [P14K]	1.43
YQGGPPRPPMGMRAPVMSQGGRY [P14A]	1.47
YQGGPPRPPMGMRCPVMSQGGRY [P14C]	2.27
YQGGPPRPPMGMRGPVMSQGGRY [P14G]	2.35
YQGGPPRPPMGMRPPKMSQGGRY [V16K]	2.93
YQGGPPRPPMGMRPPHMSQGGRY [V16H]	2.71
YQGGPPRPPMGMRPPIMSQGGRY [V16I]	2.03
YQGGPPRPPMGMRPPCMSQGGRY [V16C]	2.44
YQGGPPRPPMGMRPPNMSQGGRY [V16N]	2.65
YQGGPPRPPMGMRPPFMSQGGRY [V16F]	2.18
YQGGPPRPPMGMRPPWMSQGGRY [V16W]	1.75
YQGGPYRPPMGMRPPVMSQGGRY [P6Y]	1.78
YQGGPERPPMGMRPPVMSQGGRY [P6E]	2.95
YQGGPDRPPMGMRPPVMSQGGRY [P6D]	2.73

Variant	protein stability index
YQGGPCRPPMGMRPPVMSQGGRY [P6C]	1.96
YQGGPQRPPMGMRPPVMSQGGRY [P6Q]	2.2
YQGGPIRPPMGMRPPVMSQGGRY [P6I]	2.49
YQGGPTRPPMGMRPPVMSQGGRY [P6T]	2.06
YQGGPNRPPMGMRPPVMSQGGRY [P6N]	2.59
YQGGPHRPPMGMRPPVMSQGGRY [P6H]	2.23
YQGGPKRPPMGMRPPVMSQGGRY [P6K]	2.91
YQGGPLRPPMGMRPPVMSQGGRY [P6L]	2.58
YQGGPGRPPMGMRPPVMSQGGRY [P6G]	2.07
YQGGPMRPPMGMRPPVMSQGGRY [P6M]	2.19
YQGGPSRPPMGMRPPVMSQGGRY [P6S]	2.45
YQGGPARPPMGMRPPVMSQGGRY [P6A]	1.6
YQGGPPRPPMGMRPPVMSQWGRY [G20W]	2.46
YQGGPPRPPMGMRPPVMSQFGRY [G20F]	1.88
YQGGPPRPPMGMRPPVMSQEGRY [G20E]	2.23
YQGGPPRPPMGMRPPVMSQYGRY [G20Y]	1.68
YQGGPPRPPMGMRPPVMSQSGRY [G20S]	1.67
YQGGPPRPPMGMRPPVMSQKGRY [G20K]	2.16
YQGGPPRPPMGMRPPVMSQRGRY [G20R]	2.75
YQGGPPIPPMGMRPPVMSQGGRY [R7I]	1.92
YQGGPPSPPMGMRPPVMSQGGRY [R7S]	2.98
YQGGPPVPPMGMRPPVMSQGGRY [R7V]	1.66
YQGGPPEPPMGMRPPVMSQGGRY [R7E]	3.09

Variant	protein stability index
YQGGPPKPPMGMRPPVMSQGGRY [R7K]	2.71
YQGGPPLPPMGMRPPVMSQGGRY [R7L]	1.7
YQGGPPCPPMGMRPPVMSQGGRY [R7C]	1.23
YQGGPPGPPMGMRPPVMSQGGRY [R7G]	2.8
YQGGPPMPPMGMRPPVMSQGGRY [R7M]	1.51
YQGGPPRPPMGMRPPVDSQGGRY [M17D]	2.86
YQGGPPRPPMGMRPPVKSQGGRY [M17K]	2.85
YQGGPPRPPMGMRPPVCSQGGRY [M17C]	4
YQGGPPRPPMGMRPPVYSQGGRY [M17Y]	1.75
YQGGPPRPPMGMRPPVVSQGGRY [M17V]	1.49
YQGGPPRPPMGMRPPVSSQGGRY [M17S]	2.62
YQGGPPRPPMGMRPPVLSQGGRY [M17L]	1.52
YQGGPPRPPMGMRPPVQSQGGRY [M17Q]	2.56
YQGGPPRPPMGMRPPVWSQGGRY [M17W]	1.67
YQGGPPRPPMGMRPPVFSQGGRY [M17F]	2.17
YQGGPPRPPMGMRPPVGSQGGRY [M17G]	2.42
YQGGPPRPPMGMRPPVMPQGGRY [S18P]	2.08
YQGGPPRPPMGMRPPVMDQGGRY [S18D]	2.04
YQGGPPRPPMGMRPPVMLQGGRY [S18L]	2.28
YQGGPPRPPMGMRPPVMEQGGRY [S18E]	2.72
YQGGPPRPPMGMRPPVMRQGGRY [S18R]	2.2
YQGGPPRPPMGMRPPVMKQGGRY [S18K]	1.81
YQGGPPRPPMGMRPPVMYQGGRY [S18Y]	1.58

Variant	protein stability index
YQGGPPRPPMGMRPPVMWQGGRY [S18W]	2.56
YQGGPPRPPMGMRPPVMHQGGRY [S18H]	1.44
YQGGPPRPPMGMRPPVMNQGGRY [S18N]	2.13
YQGGPPRPPMGMRPPVMSHGGRY [Q19H]	4.08
YQGGPPRPPMGMRPPVMSRGGRY [Q19R]	2.17
YQGGPPRPPMGMRPPVMSKGGRY [Q19K]	2.18
YQGGPPRPPMGMRPPVMSPGGRY [Q19P]	1.9
YQGGPPRPPMGMRPPVMSNGGRY [Q19N]	2.56
YQGGPPRPPMGMRPPVMSTGGRY [Q19T]	2.39
YQGGPPRPPMGMRPPVMSLGGRY [Q19L]	1.46
YQGGPPRPPMGMRPPVMSEGGRY [Q19E]	2.17
YQGGPPRPPHGMRPPVMSQGGRY [M10H]	2.34
YQGGPPRPPVGMRPPVMSQGGRY [M10V]	2.57
YQGGPPRPPSGMRPPVMSQGGRY [M10S]	2.1
YQGGPPRPPNGMRPPVMSQGGRY [M10N]	1.82
YQGGPPRPPIGMRPPVMSQGGRY [M10I]	3.45
YQGGPPRPPQGMRPPVMSQGGRY [M10Q]	2.14
YQGGPPRPPLGMRPPVMSQGGRY [M10L]	1.4
YQGGPPRPPMGMRPHVMSQGGRY [P15H]	2.71
YQGGPPRPPMGMRPDVMSQGGRY [P15D]	2.27
YQGGPPRPPMGMRPRVMSQGGRY [P15R]	2.07
YQGGPPRPPMGMRPFVMSQGGRY [P15F]	1.58
YQGGPPRPPMGMRPSVMSQGGRY [P15S]	2.23

Variant	protein stability index
YQGGPPRPPMGMRPTVMSQGGRY [P15T]	1.61
YQGGPPRPPMGMRPQVMSQGGRY [P15Q]	2.65
YQGGPPRPPMGMRPKVMSQGGRY [P15K]	1.09
YQGGPPRPPMGMRPEVMSQGGRY [P15E]	2.2
YQGGPPRPPMGMRPNVMSQGGRY [P15N]	1.72
YQGGPPRPPMGMRPVVMSQGGRY [P15V]	3.12
YQGGPPRPPMGSRPPVMSQGGRY [M12S]	2.64
YQGGPPRPPMGGRPPVMSQGGRY [M12G]	2.05
YQGGPPRPPMGTRPPVMSQGGRY [M12T]	2.64
YQGGPPRPPMGRRPPVMSQGGRY [M12R]	1.35
YQGGPPRPPMGERPPVMSQGGRY [M12E]	2.88
YQGGPPRPPMGVRPPVMSQGGRY [M12V]	2.79
YQGGPPRPPMGIRPPVMSQGGRY [M12I]	2.25
YQGGPPRPPMGKRPPVMSQGGRY [M12K]	2.34
YQGGPPRPPMGMRPPVMSQGGRS [Y23S]	2.43
YQGGPPRPPMGMRPPVMSQGGRM [Y23M]	2.44
YQGGPPRPPMGMRPPVMSQGGRE [Y23E]	2.37
YQGGPPRPPMGMRPPVMSQGGRT [Y23T]	1.9
YQGGPPRPPMGMRPPVMSQGGRP [Y23P]	2.82
YQGGPPRPPMGMRPPVMSQGGRA [Y23A]	1.98
YQGGPPRPPMGMRPPVMSQGGRC [Y23C]	1.97
YQGGPPRPPMGMRPPVMSQGGRW [Y23W]	3.51
YQGGPPRPPMGMRPPVMSQGGRV [Y23V]	1.5

Variant	protein stability index
YQGGPPRPPMGMRPPVMSQGGRD [Y23D]	3.11
YQGGPPRPPMGMRPPVMSQGGRL [Y23L]	1.66
YQGGPPRVPMGMRPPVMSQGGRY [P8V]	1.57
YQGGPPRNPMGMRPPVMSQGGRY [P8N]	2.49
YQGGPPRSPMGMRPPVMSQGGRY [P8S]	1.95
YQGGPPRKPMGMRPPVMSQGGRY [P8K]	2.35
YQGGPPRAPMGMRPPVMSQGGRY [P8A]	1.09
YQGGPPRIPMGMRPPVMSQGGRY [P8I]	2.2
YQGGPPRCPMGMRPPVMSQGGRY [P8C]	1
YQGGPPRHPMGMRPPVMSQGGRY [P8H]	2.98
YQGGPPRPHMGMRPPVMSQGGRY [P9H]	1.41
YQGGPPRPGMGMRPPVMSQGGRY [P9G]	2.84
YQGGPPRPMMGMRPPVMSQGGRY [P9M]	1.12
YQGGPPRPWMGMRPPVMSQGGRY [P9W]	4.64
YQGGPPRPTMGMRPPVMSQGGRY [P9T]	2.49
YQGGPPRPRMGMRPPVMSQGGRY [P9R]	1.87
YQGGPPRPKMGMRPPVMSQGGRY [P9K]	1.73
YQGGPPRPAMGMRPPVMSQGGRY [P9A]	1.83
YQGGPPRPLMGMRPPVMSQGGRY [P9L]	1.28
YQGGPPRPVMGMRPPVMSQGGRY [P9V]	1.68
YQGGPPRPNMGMRPPVMSQGGRY [P9N]	1.44
YQGGPPRPIMGMRPPVMSQGGRY [P9I]	2.91
YQGGPPRPPMGMRPPVMSQGGMY [R22M]	1.69

Variant	protein stability index
YQGGPPRPPMGMRPPVMSQGGDY [R22D]	1.89
YQGGPPRPPMGMRPPVMSQGGHY [R22H]	1.91
YQGGPPRPPMGMRPPVMSQGGSY [R22S]	1.7
YQGGPPRPPMGMRPPVMSQGGTY [R22T]	1.89
YQGGPPRPPMGMRPPVMSQGGFY [R22F]	1.21
YQGGPPRPPMGMRPPVMSQGGQY [R22Q]	1.43
YQGGPPRPPMGMRPPVMSQGGKY [R22K]	1.99
YQGGPPRPPMHMRPPVMSQGGRY [G11H]	1.43
YQGGPPRPPMCMRPPVMSQGGRY [G11C]	1.81
YQGGPPRPPMNMRPPVMSQGGRY [G11N]	1.97
YQGGPPRPPMPMRPPVMSQGGRY [G11P]	1.6
YQGGPPRPPMSMRPPVMSQGGRY [G11S]	1.52
YQGGPPRPPMLMRPPVMSQGGRY [G11L]	1.82
YQGGPPRPPMIMRPPVMSQGGRY [G11I]	2.95
YQGGPPRPPMYMRPPVMSQGGRY [G11Y]	2.14
YQGGPPRPPMGMMPPVMSQGGRY [R13M]	2.1
YQGGPPRPPMGMSPPVMSQGGRY [R13S]	1.96
YQGGPPRPPMGMIPPVMSQGGRY [R13I]	2.76
YQGGPPRPPMGMWPPVMSQGGRY [R13W]	1.79
YQGGPPRPPMGMFPPVMSQGGRY [R13F]	2.23
